According to PMC11724271:
Where “and” joins values, the source holds several entries; their conditions need not be identical. Equal values may be shown once.

Target: CdiA-CT^EC536_H178A (catalytically inactive C-terminal toxin domain of CdiA from uropathogenic E. coli 536) (uropathogenic Escherichia coli 536)
Experiment: cryo-EM structure

B1: O-acetylserine sulfhydrylase A (CysK) (enzyme)
chain: MSKIFEDNSLTIGHTPLVRLNRIGNGRILAKVESRNPSFSVKCRIGANMIWDAEKRGVLKPGVELVEPTSGNTGIALAYVAAARGYKLTLTMPETMSIERRKLLKALGANLVLTEGAKGMKGAIQKAEEIVASNPEKYLLLQQFSNPANPEIHEKTTGPEIWEDTDGQVDVFIAGVGTGGTLTGVSRYIKGTKGKTDLISVAVEPTDSPVIAQALAGEEIKPGPHKIQGIGAGFIPANLDLKLVDKVIGITNEEAISTARRLMEEEGILAGISSGAAVAAALKLQEDESFTNKNIVVILPSSGERYLSTALFADLFTEKELQQ
modifications: PLP (N'-pyridoxyl-lysine-5'-monophosphate); position not given
  stoichiometry N (CysK per CdiA-CT): 2 and 1
